This is an account of results in the nanobody polyreactivity screen of Harvey et al. (2022).

The nature of the data set: yeast display, Sf9 membrane polyspecificity reagent, FACS + sequencing; frameworks hold sequencing errors. A digest of the protocol: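 Galactose-induced (36–48 hours) yeast carrying a synthetic nanobody display library were exposed to 10% biotinylated, detergent-solubilized Sf9 membrane reagent at 4 °C for 1 hour. FACS followed streptavidin microbead enrichment, using low and high (top ~1%) gates for expression (anti-HA) and reagent binding (streptavidin). Colony PCR, MiSeq 2 × 250 sequencing and CDR-length filtering followed. Labels for polyreactivity reflect the gate of origin.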
Turning to “QVQRVESWGGLVQAGCRLRLSCAASGIFRRYAMGWYRQAPGKERELVAAISSSGGSTDYADSVKGRFTISRDNAKNTVYLLMNSLKPEDTAVYYCNAYDLHGWWSYAYDYWGQGTQVTVSS”, the “polyreactivity (PSR sort gate)” value was “high polyreactivity”.
The value for “QVQRVETGGGLVQAGGSLRLSSAASVLTFKWYAMGWYRQSPGKERELVAAISRDGSTYYGDSVKVRFTISRDNAKNTVYLQMNSLKPEDTAVYYCAADIWPSSLLADEYDYWGQGTQVTVSS” was “high polyreactivity”.
On to “QVQSVESAGVLVQAGGSLRLSCAASGFTFTWYAMGWYRKAPGKERELVATISRSGGRTYYADSVKGRFTISRDNAKNTVYLQMNSLKPEDTAVYYCAADTRNSPRYDYWGQGTQVTVSS”, for which the “polyreactivity (PSR sort gate)” value is “high polyreactivity”.
The value for “QVQSVESCGGLVQAGRSLRLSCAPSGSIFADYAMGWYSQAPGKERELVAVISRRGGTTYYADSVKGRFTISRDNAKNSVYLQMNSLKPEDTAVYYCAARRSFNEYDYWGKGTQVTVSS” was “high polyreactivity”; that for “QVQVEESGGGFDQAGGSLRLSCAASGSIFYYNAMGWYRQAPGKERELVAAISGRTGSTYYADSVKGRFTISRDNAKNTVYLQMNSLKPEDTAVYYCNALFLGYYYYWGQGTQVTVSS” was “high polyreactivity”.
As for “QVQVVDSGGGLVQAGGSLRLSCAASGRTFIGNAMGWYRQAPGKERELVATITTSAGTTYYADSVKGRITISRDNAKITVYVQMLSLKPEDTAVYYCAADASQSEGDYWGQGTQVTVAS”, the “polyreactivity (PSR sort gate)” value is “high polyreactivity”.
Consider “QVQVVESGAGLVQAGGILRLRCASSGFILYPNAMGWYRQAPGKERELVAAITESDGITYYADSVKGRFTISRDNAKNTVYLQMNSLKPEDTAVYYCNTGFSYTYDYWGQGTQVTVSS”, for which the “polyreactivity (PSR sort gate)” value is on record as “low polyreactivity”.
The value for “QVQVVESGGCLVQAGGSLRLSCAASGRMFRRYAMGWYRQAPGKERELVAAISSGGSTYYADSVKGRFTISRDNAKNTVYLQMNSLKPEDTAVYYCNAKVGAYLNYGYWGQGTQVTVSS” was “low polyreactivity”; that for “QVQVVESGGGIVHAGGSLRLSCAASGFIFLVNGMVWYRQAPGKERELVAAISFDGGSTYADSVKGRFTISRDNAKNTVYLLMTSLKPEDTAVFYCATDVRGVDGEDYSWGQGTQVTVSS” was “low polyreactivity”.
Regarding “QVQVVESGGGLDQAGGSLRLSCAASGRIFFYYGMGWYRQAPGTERELVASISRGGSTTYADSVKGRFTISRDNAMKTVYLQMNSLKPEDSAVYYCARRYTQIYSSNYGYWGQGTEVTVSS”, the “polyreactivity (PSR sort gate)” value is “high polyreactivity”.
As for “QVQVVESGGGLFQAGGSLRLSSAASGSIFARNALGWYRQAPGKERDLVAGITRSTGDTYYADSVKGRFTISRDNAKYTVSFQMNSLKQEDTAVYYCARDGRRTPYKYEYWGQGTQVTVSS”, the “polyreactivity (PSR sort gate)” value is “low polyreactivity”.
As to “QVQVVESGGGLVQAGASLRLSCAASGRTCLHKAMGWYRQAPGKERELVAAIDSRGTTHYADSVKGRFTISRDNAKNTVYLQMNSLKPEDTAVYYCAARPTRGHWWYAYWGQGTQVTVSS”, the “polyreactivity (PSR sort gate)” value is “low polyreactivity”.
With “QVQVVESGGGLVQAGGSLGLSCAASGGTFGYYAMGWYRQAPGKERELVAAINRSDGGTYYADSVKGRFTISRDKAKNTVYLQMTSLKPEDTAVYYCNADDFYYDEPYDYWGQGTQVTVSS”, the “polyreactivity (PSR sort gate)” value was “low polyreactivity”.
For the sequence “QVQVVESGGGLVQAGGSLRLRCAASGRSFVRNAMGWYRQAPGKEREFVAAINSGGSTYYADSVKGRFTISRDNAKNTVYLQMNSLKPEDTAVYYCAAELHIYYSWYWYDYWGQGTQVTVSS”, the “polyreactivity (PSR sort gate)” value is recorded as “high polyreactivity”.
In the case of “QVQVVESGGGLVQAGGSLRLSCAASGFISSYYAMGWYRQAPGKERELVAAITSGGRTYYADSVKGRFTISRDNAKNTVYLQMNSLKPEDTAVYYCAKYSRTKAFDYWGQGTQVTVSS”, the “polyreactivity (PSR sort gate)” value is on record as “high polyreactivity”.
The value for “QVQVVESGGGLVQAGGSLRLSCAASGRIFAKYAMGWYIQAPGKERELVAAIDLSDGSTSYADSVKGRFTISRDNAKNTVYLQMNSLKPEDTAVYYCAKTWANVYAGAHDYWGQGTQVTVSS” was “low polyreactivity”; that for “QVQVVESGGGLVQAGGSLRLSCAASGRIFTGYAMGWYSQAPGTERELVAAISRGGSTNYADSVKGRFTISRDNAKNTVYLQMNSLKPEDTAVYYCAAGVHWDRGDYWGQGTQVTVSS” was “low polyreactivity”.
On to “QVQVVESGGGLVQAGGSLRLSCAASGRTFGVYAMGWSRQAPGKERELVAVINRSGGSTYYADSVKGRFTISRDNAKYTVYLQMNSLNPEDTAVYSCDKASAYSAYDDHDDYWGHGTQVTVSS”, for which the “polyreactivity (PSR sort gate)” value is given as “high polyreactivity”.
Under “QVQVVESGGGLVQAGGSLRLSCAASGSIFPFYVMGWYRQAPGKEREFVATISSRGGSTYYADSVKGRFTISRDNAKNTVYLQMNSLKPEDTAVYYCAAGWYRNDWGQRLHTYYYWGQGTQVTVSS” stands “high polyreactivity”.
“QVQVVESGGGLVQAGGSLRLSCAASGSTFVRNAMGWYRQAPGKDRELVAAITTSGARTYYADSVKGRFTISRDNAKHTVYLQMNSLKPEDTAVYYCAAEYKGRTYRFDYWGQGTQVTVSS”: the “polyreactivity (PSR sort gate)” value is listed as “low polyreactivity”.
Under “QVQVVESGGGLVQAGGSLRLSCAASGYIFDYYAMGWYRQAPGKERELVAAISSSGGTTYYADSVKGRFTISRDNAKNTVYLQMNSLKPEDTAVYYCAADAVLPRSDYWGQGTQVTVSS” stands “high polyreactivity”; under “QVQVVQSGGGLVQAGGSLSLSCAASGNTFYGYAMGWYRQAPGNESEFVASITLSGDSTYYADSVKGRFTISRDNAQNTVYLQMNSLKPEDTAVYYCAGVYTYPLGYYHYTYDYWGQGTQVTVSS”, “low polyreactivity”.
The value for “QVRLVESGGGLDQAGGSLPLSCAASGRTFEPNAMGWYRQAPGKERELVAAITSAGITHYADSVKGRFTISRDNAKNTVYLQMNSLKPEDTAVYYCRLQTGIIDRLRRYNYWGQGTQVTVSS” was “high polyreactivity”; that for “QVRLVESGGGLVKAGGSLRLSSAASGSTFWSYAMGCYRQATGKERELVAAISWSGDSTYYADSVKGRFTISRDNAKNTVYLQMNSLKPEDTAVYYCAADYVGGSYEYEYWGQGTQVTVSS” was “low polyreactivity”; that for “QVRLVESGGGLVQAGGSLRLSCAASAFTFDSYAMGWNRQAPGKERELVAAITWSGGSTYYADSVKGRFTISRDIAKNTVYFQMNSLKPEDTAVYYCNVDRYDGDYCGQGTQVTVSS” was “high polyreactivity”.
As to “QVRLVESGGGLVQAGGSLRLSCAASGFIFWRNAMGWYRQAPGKERELVAAITSGGSTNYADSVKGRFTISRDNAKNTVYLQMNSLKPVDTAVYYCAARQWFSHRRWGGSRYDYWGQGTQVTVSS”, the “polyreactivity (PSR sort gate)” value is given as “low polyreactivity”.
The value for “QVRLVESGGGLVQAGRSLRLSCAASGRIFWNYAMGWYRQAPGKERELVATIDKSGGSTRYADSVKGRFTISRDTAKNTVYLQMNSLKPEDTAVYYCAARGPASRGFRGARSGLTFDYWGQGTQVTVSS” was “low polyreactivity”.
As for “QYQLVESGGGLVQAGGSLRLSCAASGFIFSTNAMGWYRQAPGKERELVAAISRRGGNTYYADSLKGRFTISRDNAKNTVYLQMNSLKPEDTAVYYCAKRGVYGYRYYYWGQGTQVTVSS”, the “polyreactivity (PSR sort gate)” value is on record as “high polyreactivity”.
On to “QYQLVESGGGLVQAGRTLRLSWAASGRIFVRYVMGCYRQAPVKERELVAAISSSGGSTYYADSVKGRFTISRDNAKNWVYLQIYSLKPEDTAVYYCATDFMDKYILPYDYWGQGTQVTVSS”, for which the “polyreactivity (PSR sort gate)” value is reported as “low polyreactivity”.
